B1: AT1R wildtype C-terminally fused to YPet [not stated] / AT1R wildtype coupled to mTurquoise2 [not stated] (parent)
chain 1: MILNSSTEDGIKRIQDDCPKAGRHNYIFVMIPTLYSIIFVVGIFGNSLVVIVIYFYMKLKTVASVFLLNLALADLCFLLTLPLWAVYTAMEYRWPFGNYLCKIASASVSFNLYASVFLLTCLSIDRYLAIVHPMKSRLRRTMLVAKVTCIIIWLLAGLASLPAIIHRNVFFIENTNITVCAFHYESQNSTLPIGLGLTKNILGFLFPFLIILTSYTLIWKALKKAYEIQKNKPRNDDIFKIIMAIVLFFFFSWIPHQIFTFLDVLIQLGIIRDCRIADIVDTAMPITICIAYFNNCLNPLFYGFLGKKFKRYFLQLLKYIPPKAKSHSNLSTKMSTLSYRPSDNVSSSTKKPAPCFEVE
chain 2: B1 chain 1

What was measured:
[1] = variants of: B1; assay: FLIM (FRET) in living HEK293 cells; details: with AT1R wildtype coupled to mTurquoise2, 2-exponential fitting, acceptor AT1R-YPet, read off a plot
[2] = variants of: B1; assay: intensity-based FRET microscopy in living HEK293 cells; details: with AT1R wildtype coupled to mTurquoise2; donor AT1R-mTurquoise2 (wildtype), acceptor AT1R-YPet; read off a plot

Variant	donor fluorescence lifetime [1] [ns]	response [2] [%]
chain 1 S189A I193A L197A I201A L202A L205A F206A	3.5	35
chain 1 Y54A F55A F96A Y99A L100A	3	67

Reference: PMC11335197
